2 molecules from article doi:10.1101/2021.11.04.467245 (bioRxiv, 2021) can be followed below.

What is called stoichiometry N is a count of units in the complex or per binding partner.

The target of series [1] is T1, TwinStrep-BICD2 WT (mouse), Q921C5.
T1 chain: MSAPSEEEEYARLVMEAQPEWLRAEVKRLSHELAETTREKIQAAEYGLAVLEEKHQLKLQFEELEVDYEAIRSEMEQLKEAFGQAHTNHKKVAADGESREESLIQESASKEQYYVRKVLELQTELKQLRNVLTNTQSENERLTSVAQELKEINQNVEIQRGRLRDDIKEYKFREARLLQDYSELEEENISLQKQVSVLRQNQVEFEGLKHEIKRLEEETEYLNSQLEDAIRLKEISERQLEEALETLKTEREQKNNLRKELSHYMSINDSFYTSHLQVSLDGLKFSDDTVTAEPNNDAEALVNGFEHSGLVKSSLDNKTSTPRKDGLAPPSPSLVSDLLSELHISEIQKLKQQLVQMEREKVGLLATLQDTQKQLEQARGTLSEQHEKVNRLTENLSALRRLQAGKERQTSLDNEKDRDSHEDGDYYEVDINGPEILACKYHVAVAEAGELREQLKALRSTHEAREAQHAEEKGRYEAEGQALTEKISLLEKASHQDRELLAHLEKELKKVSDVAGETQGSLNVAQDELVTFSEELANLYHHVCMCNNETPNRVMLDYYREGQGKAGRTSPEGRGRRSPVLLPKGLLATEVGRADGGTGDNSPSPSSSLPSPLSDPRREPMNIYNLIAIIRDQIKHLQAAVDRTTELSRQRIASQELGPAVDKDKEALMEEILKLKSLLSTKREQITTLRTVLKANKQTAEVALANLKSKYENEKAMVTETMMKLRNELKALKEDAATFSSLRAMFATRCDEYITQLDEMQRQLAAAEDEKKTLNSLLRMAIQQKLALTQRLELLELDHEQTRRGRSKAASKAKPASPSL
The series can be described thus: SEC-MALS. Particulars: remark: other sources report otherwise. In general terms: In gel filtration, larger molecules generally elute earlier.

The series “SEC-MALS” concerns the molecule itself. The series can be described thus: SEC-MALS.

B1: TwinStrep-BICD2 WT, Q921C5 1-820 (natural protein)
chain: MSAPSEEEEYARLVMEAQPEWLRAEVKRLSHELAETTREKIQAAEYGLAVLEEKHQLKLQFEELEVDYEAIRSEMEQLKEAFGQAHTNHKKVAADGESREESLIQESASKEQYYVRKVLELQTELKQLRNVLTNTQSENERLTSVAQELKEINQNVEIQRGRLRDDIKEYKFREARLLQDYSELEEENISLQKQVSVLRQNQVEFEGLKHEIKRLEEETEYLNSQLEDAIRLKEISERQLEEALETLKTEREQKNNLRKELSHYMSINDSFYTSHLQVSLDGLKFSDDTVTAEPNNDAEALVNGFEHSGLVKSSLDNKTSTPRKDGLAPPSPSLVSDLLSELHISEIQKLKQQLVQMEREKVGLLATLQDTQKQLEQARGTLSEQHEKVNRLTENLSALRRLQAGKERQTSLDNEKDRDSHEDGDYYEVDINGPEILACKYHVAVAEAGELREQLKALRSTHEAREAQHAEEKGRYEAEGQALTEKISLLEKASHQDRELLAHLEKELKKVSDVAGETQGSLNVAQDELVTFSEELANLYHHVCMCNNETPNRVMLDYYREGQGKAGRTSPEGRGRRSPVLLPKGLLATEVGRADGGTGDNSPSPSSSLPSPLSDPRREPMNIYNLIAIIRDQIKHLQAAVDRTTELSRQRIASQELGPAVDKDKEALMEEILKLKSLLSTKREQITTLRTVLKANKQTAEVALANLKSKYENEKAMVTETMMKLRNELKALKEDAATFSSLRAMFATRCDEYITQLDEMQRQLAAAEDEKKTLNSLLRMAIQQKLALTQRLELLELDHEQTRRGRSKAASKAKPASPSL
B1 gave a stoichiometry N in series [1] of 2.

B2: TwinStrep-BICD2 S102D (natural protein)
chain: MSAPSEEEEYARLVMEAQPEWLRAEVKRLSHELAETTREKIQAAEYGLAVLEEKHQLKLQFEELEVDYEAIRSEMEQLKEAFGQAHTNHKKVAADGESREEDLIQESASKEQYYVRKVLELQTELKQLRNVLTNTQSENERLTSVAQELKEINQNVEIQRGRLRDDIKEYKFREARLLQDYSELEEENISLQKQVSVLRQNQVEFEGLKHEIKRLEEETEYLNSQLEDAIRLKEISERQLEEALETLKTEREQKNNLRKELSHYMSINDSFYTSHLQVSLDGLKFSDDTVTAEPNNDAEALVNGFEHSGLVKSSLDNKTSTPRKDGLAPPSPSLVSDLLSELHISEIQKLKQQLVQMEREKVGLLATLQDTQKQLEQARGTLSEQHEKVNRLTENLSALRRLQAGKERQTSLDNEKDRDSHEDGDYYEVDINGPEILACKYHVAVAEAGELREQLKALRSTHEAREAQHAEEKGRYEAEGQALTEKISLLEKASHQDRELLAHLEKELKKVSDVAGETQGSLNVAQDELVTFSEELANLYHHVCMCNNETPNRVMLDYYREGQGKAGRTSPEGRGRRSPVLLPKGLLATEVGRADGGTGDNSPSPSSSLPSPLSDPRREPMNIYNLIAIIRDQIKHLQAAVDRTTELSRQRIASQELGPAVDKDKEALMEEILKLKSLLSTKREQITTLRTVLKANKQTAEVALANLKSKYENEKAMVTETMMKLRNELKALKEDAATFSSLRAMFATRCDEYITQLDEMQRQLAAAEDEKKTLNSLLRMAIQQKLALTQRLELLELDHEQTRRGRSKAASKAKPASPSL
Take B2: in the series “SEC-MALS”, the “stoichiometry N” value came to 2.
